Results on 1 molecule are retold here after article PMC2175344.

Experiment in all cases: fluorescence anisotropy
Data set [1] deals with HIV-1 nucleocapsid protein (NC) (HIV-1, UniProt P12493 378-432).
For data set [2], the target named is HIV-1 reverse transcriptase (RT) (HIV-1, UniProt P04585;P04585 588-1147;588-1027).
In a further data set the target is APOBEC3G (A3G) (Homo sapiens, UniProt Q9HC16 1-384).
Chain of APOBEC3G (A3G) (Q9HC16 whole entry): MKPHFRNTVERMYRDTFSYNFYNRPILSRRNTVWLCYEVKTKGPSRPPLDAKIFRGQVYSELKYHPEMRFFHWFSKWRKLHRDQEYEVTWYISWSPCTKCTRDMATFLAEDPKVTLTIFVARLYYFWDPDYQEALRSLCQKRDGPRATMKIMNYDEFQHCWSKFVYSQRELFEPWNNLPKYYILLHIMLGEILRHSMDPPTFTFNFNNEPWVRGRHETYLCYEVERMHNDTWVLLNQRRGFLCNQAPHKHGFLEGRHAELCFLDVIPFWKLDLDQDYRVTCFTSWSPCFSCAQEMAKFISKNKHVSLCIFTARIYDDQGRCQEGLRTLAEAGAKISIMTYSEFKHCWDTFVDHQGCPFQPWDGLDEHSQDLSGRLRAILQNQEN

B1: 5'-FAM-JL587D 20-mer (ssDNA)
DNA: CTTCTTTGGGAGTGAATTAG
As usually defined, the Kd is the free concentration of one partner at which half of the binding sites on the other are occupied at equilibrium, for simple one-to-one binding. The low end stands for tighter binding, the high end for weaker binding. Turning to B1, the Kd in data set [1] was found to be 84.1 ± 7.8 nM; in data set [2] it was 1840 ± 390 nM; with APOBEC3G (A3G), 238 ± 95 nM.
